Laboratory results as given in US20100292444A1 (published 2010).
Where a chain is given by its changes, count along the chain named. Numbers in names are those of the source.

Biological target: T1, Ser-PRLR (1-210) (UniProt P16471 25-234)
T1 construct: range 1-210; also called PRL receptor; prolactin receptor
T1 sequence: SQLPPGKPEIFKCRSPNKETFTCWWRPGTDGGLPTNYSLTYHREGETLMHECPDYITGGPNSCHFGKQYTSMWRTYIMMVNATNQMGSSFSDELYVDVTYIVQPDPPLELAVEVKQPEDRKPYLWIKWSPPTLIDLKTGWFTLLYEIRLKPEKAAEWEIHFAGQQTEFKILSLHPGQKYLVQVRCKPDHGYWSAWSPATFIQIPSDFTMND
Test: SPR (Biacore 3000): Ser-PRLR (1-210) amine-coupled to a CM5 chip, analogue injected at 500 nM
Description: Ser-PRLR (1-210) (25 μg/ml in 10 mM sodium acetate, pH 3.0), was injected into a Biacore 3000 instrument at a flow rate of 5 μl/min and coupled to a CM5 sensor chip by amine coupling chemistry. […] Data evaluation was performed in BiaEvaluation 4.1. Regeneration was accomplished with 4.5 M MgCl₂ between runs.
The PRL receptor binding affinity of G129R-PRL was compared to that of N56D,G129R-PRL (corresponding to the deamidated form of G129R-PRL), using the Biacore-assay. […] Thus, deamidation of […] markedly reduces the receptor binding affinity

B1: G129R-PRL (ligand)
chain: LPICPGGAARCQVTLRDLFDRAVVLSHYIHNLSSEMFSEFDKRYTHGRGFITKAINSCHTSSLATPEDKEQAQQMNQKDFLSLIVSILRSWNEPLYHLVTEVRGMQEAPEAILSKAVEIEEQTKRLLERMELIVSQVHPETKENEIYPVWSGLPSLQMADEESRLSAYYNLLHCLRRDSHKIDNYLKLLKCRIIHNNNC
notes: also called G129R-hPRL
- Kd: 27 nM

B2: N56D,G129R-PRL (ligand)
chain: B1 chain with N56D
notes: Recombinant mutant that mimics G129R-PRL deamidated at Asn-56; also called deamidated form of G129R-PRL
- Kd: 313 nM
